From patent US5616558A, “Medicaments comprising glicentin as active ingredient” (Nisshin Flour Milling Co., Ltd., priority 1992, dated 1997)

Tests used:
male MALB/c mice = assay: intraperitoneal administration to mice, observation of appearance; assay type: in vivo; conditions: 10 mg/kg intraperitoneally, male MALB/c mice (6 weeks age)
arginine loaded dogs = assay: infusion into the pancreatic artery of arginine loaded dogs; plasma insulin, plasma glucagon and blood glucose measured; assay type: in vivo, mongrel dogs; conditions: 100 pmol or 400 pmol glicentin solution infused into the pancreatic artery for 10 minutes
Description: Healthy mongrel dogs weighing 13 to 17 kg were subjected to the test after an overnight fast (A. Ohneda et al., Hotre. Metab. Res., 9, 447-452 (1977)).
The animals were anesthetized with sodium pentobarbital (Nembutal®) and their abdomens were opened. […] After the operation was completed, saline solution containing 0.5% arginine was infused into the pancreatic artery at a constant rate of 2 ml/min through the cannula using an infusion pump. […] 4 ml portions of blood samples for hormone assay were collected at various intervals into a glass tube containing 1000 KIU aprotinine and 10 mg EDTA.
The plasma insulin was measured in accordance with a known method mentioned in C.
The blood glucose was measured for blood drawn from the femoral artery by the glucose oxidase method using a test kit for the determination of blood glucose (available from Wako Pure Chemical Industries, Japan under the trade name of "Glucose B-Test Wako").

B1: glicentin: peptide comprising 69 amino acid residues, major component of gut glucagon-like immunoreactants; produced by recombinant DNA in E. coli (protein)
chain: RSLQDTEEKSRSFSASQADPLSDPDQMNEDKRHSQGTFTSDYSKYLDSRRAQDFVQWLMNTKRNRNNIA
- change in appearance (male MALB/c mice): no change in appearance
- insulin secretion (plasma insulin, IRI) (arginine loaded dogs; 0.5% arginine infusion, anesthetized dogs): stimulates insulin secretion
- glucagon level (IRG(G 21)) (arginine loaded dogs; antiserum G 21 specific for C-terminal portion of glucagon): not increased
- blood glucose levels (arginine loaded dogs; blood from femoral artery, glucose oxidase method): no change
